From IntAct's records for PubMed 24434579

B1: Seipin (Saccharomyces cerevisiae), Q06058 (parent)
chain: MKINVSRPLQFLQWSSYIVVAFLIQLLIILPLSILIYHDFYLRLLPADSSNVVPLNTFNILNGVQFGTKFFQSIKSIPVGTDLPQTIDNGLSQLIPMRDNMEYKLDLNLQLYCQSKTDHLNLDNLLIDVYRGPGPLLGAPGGSNSKDEKIFHTSRPIVCLALTDSMSPQEIEQLGPSRLDVYDEEWLNTIRIEDKISLESSYETISVFLKTEIAQRNLIIHPESGIKFRMNFEQGLRNLMLRKRFLSYIIGISIFHCIICVLFFITGCTAFIFVRKGQEKSKKHS
partner: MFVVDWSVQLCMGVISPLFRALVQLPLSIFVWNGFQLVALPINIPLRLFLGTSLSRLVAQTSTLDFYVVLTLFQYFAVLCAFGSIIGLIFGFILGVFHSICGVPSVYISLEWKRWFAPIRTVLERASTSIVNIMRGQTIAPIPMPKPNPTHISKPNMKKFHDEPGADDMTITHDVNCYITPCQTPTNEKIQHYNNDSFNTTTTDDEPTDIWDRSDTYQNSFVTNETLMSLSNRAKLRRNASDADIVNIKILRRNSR

Variants of: B1
Conditions: with ldb16_yeast LDB16, P25587

| Variant | effect of a mutation on the interaction |
| --- | --- |
| G225P | decreasing interaction strength |
